One block for each binder: values may come before it.
Columns and labels:
Est3-(Flag)3 [1] = biological target: T1, Est3-(Flag)3 (S. cerevisiae, UniProt Q03096 1-181); assay: co-IP
T1 sequence (looked up): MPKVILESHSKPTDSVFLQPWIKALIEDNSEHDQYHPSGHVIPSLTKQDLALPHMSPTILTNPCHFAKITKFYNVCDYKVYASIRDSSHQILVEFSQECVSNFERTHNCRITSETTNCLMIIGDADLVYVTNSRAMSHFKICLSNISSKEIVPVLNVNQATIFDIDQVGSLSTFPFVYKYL

Est3-(Flag)3 [2] = biological target: T1, Est3-(Flag)3; assay: co-IP; remark: listed apart in the source

- fold higher co-precipitation in G2/M than in G1 (Est3-(Flag)3 [1]): ~20 fold
- fold increase in G2/M against G1 (quaternary complex) (Est3-(Flag)3 [1]): ~20 fold
B1: (myc)12-Est2 (natural protein, S. cerevisiae, UniProt Q06163 1-884, looked up)
chain: MKILFEFIQDKLDIDLQTNSTYKENLKCGHFNGLDEILTTCFALPNSRKIALPCLPGDLSHKAVIDHCIIYLLTGELYNNVLTFGYKIARNEDVNNSLFCHSANVNVTLLKGAAWKMFHSLVGTYAFVDLLINYTVIQFNGQFFTQIVGNRCNEPHLPPKWAQRSSSSSATAAQIKQLTEPVTNKQFLHKLNINSSSFFPYSKILPSSSSIKKLTDLREAIFPTNLVKIPQRLKVRINLTLQKLLKRHKRLNYVSILNSICPPLEGTVLDLSHLSRQSPKERVLKFIIVILQKLLPQEMFGSKKNKGKIIKNLNLLLSLPLNGYLPFDSLLKKLRLKDFRWLFISDIWFTKHNFENLNQLAICFISWLFRQLIPKIIQTFFYCTEISSTVTIVYFRHDTWNKLITPFIVEYFKTYLVENNVCRNHNSYTLSNFNHSKMRIIPKKSNNEFRIIAIPCRGADEEEFTIYKENHKNAIQPTQKILEYLRNKRPTSFTKIYSPTQIADRIKEFKQRLLKKFNNVLPELYFMKFDVKSCYDSIPRMECMRILKDALKNENGFFVRSQYFFNTNTGVLKLFNVVNASRVPKPYELYIDNVRTVHLSNQDVINVVEMEIFKTALWVEDKCYIREDGLFQGSSLSAPIVDLVYDDLLEFYSEFKASPSQDTLILKLADDFLIISTDQQQVINIKKLAMGGFQKYNAKANRDKILAVSSQSDDDTVIQFCAMHIFVKELEVWKHSSTMNNFHIRSKSSKGIFRSLIALFNTRISYKTIDTNLNSTNTVLMQIDHVVKNISECYKSAFKDLSINVTQNMQFHSFLQRIIEMTVSGCPITKCDPLIEYEVRFTILNGFLESLSSNTSKFKDNIILLRKEIQHLQAYIYIYIHIVN

- Est1:Est2 ratio in the anti-Est3 immunoprecipitate (Est3-(Flag)3 [1]): ~4 Est1 per Est2
- fold reduction in the tlc1-59 strain against the TLC1 strain (Est3-(Flag)3 [2]): ~20 fold
B2: Est1-(myc)12 (natural protein, S. cerevisiae, UniProt P17214 1-699, looked up)
chain: MDNEEVNEECMRLFFKNARAHLDKHLTSRLTCDENAYITFRCFLDGIHRKSTRFLEELLLKQENMYHNNNYERINDSVIPLVLKLLWLQIHEPTLQWFEHWFHDIMRLSNRRKFRVFRIFQKKMIQFFKITHRYYYDIIEHLCAKYDMNSVISNALFAKLNLMQYTDGLSTHEKIILNTSNPLTFSIVISLQRCVINLGSTHFYKTLLNKPSNKPKSVEGFEKSIRYLNIASLYLPAVGDTYFQRAKIYLITGKFSLYFFELVRGALVRIPSKCALNNLKDFILTPDFPERRRLMKKLAILVSKDLKGEKSFFEGQIVLQFLSIVEHTLVPQSWNASRASNCWLLKEHLQMAALKYHSGNINVILENLAATMGSFDLMFTTRKSKEQKNKLKYADLSERQVFFLDLSFDFIANIIDVVIKPSWQKNMEDFRYLAIIRLLMCWIKSYRSILQYTHRHRKFCTSFALLLNDLINSPLNCSGNIYSHRPKRSYLFREDIIFREFSCINFALTDFNDDYVYDSPDMINNIIGCPTLTKVLSPKEECVLRIRSIIFSGMKFLEKNDTGVIWNASKYKFDLISPNIKIKRQIALSEISSKINVKTQQERVVSSRKVEAKRDEQQRKRAGKIAVTELEKQFANVRRTKKLSPLPEKDGVSSELVKHAASRGRKTITGPLSSDFLSYPDEAIDADEDITVQVPDTPT
